According to the supplement of paper PMC10724198:
± gives the standard deviation of the averaged measurements.

Legend:
Saccharomyces cerevisiae [1] = experiment: protein stability index of tFT-peptide fusion (C-terminal peptide) (PSI (0-1 scale)); higher = more stable (slower turnover)
Experimental: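 MPS profiling in S. cerevisiae of the tFT-X12 degron library: putative degron peptides plus stable controls, 12 aa, fused to the C-terminus of a sfGFP-mCherry timer. Cells are FACS-sorted into 8 mCherry/sfGFP bins and deep-sequenced. PSI runs from 0 (unstable) to 1 (stable). Backgrounds are wild type, das1Δ and doa10Δ at 30 °C, and wild type, das1Δ, cdc34-1 and cdc53-1 at 37 °C; 2-3 technical replicates each.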

Saccharomyces cerevisiae [2] = experiment: as above; settings: genetic background: wild type; temperature: 30 C
[3] = genetic background: cdc34-1, temperature: 37 C
[4] = genetic background: cdc53-1, temperature: 37 C
[5] = genetic background: das1 deletion, temperature: 30 C
[6] = genetic background: das1 deletion, temperature: 37 C
[7] = genetic background: doa10 deletion, temperature: 30 C
[8] = genetic background: wild type, temperature: 30 C
[9] = genetic background: wild type, temperature: 37 C
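Also: PSI is a weighted mean of sequencing reads over stability bins, variants kept only with over 10 reads, mCherry proximal and sfGFP distal, peptide attached via GGGS linker.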

Sequence | protein stability index (Saccharomyces cerevisiae [1]; [3]) | protein stability index (Saccharomyces cerevisiae [1]; [4]) | protein stability index (Saccharomyces cerevisiae [1]; [5]) | protein stability index (Saccharomyces cerevisiae [1]; [6]) | protein stability index (Saccharomyces cerevisiae [1]; [7]) | protein stability index (Saccharomyces cerevisiae [1]; [8]) | protein stability index (Saccharomyces cerevisiae [1]; [9]) | protein stability index (Saccharomyces cerevisiae [2])
NARNPKKNRDQI | 0.697 ± 0.037 | 0.7226 ± 0.0072 | 0.627 ± 0.026 | 0.705 ± 0.032 | 0.633 ± 0.02 | 0.666 ± 0.058 | 0.70322 ± 0.00025 | 0.524 ± 0.093
NFFYLFLSFGFG | 0.523 ± 0.076 | 0.565 ± 0.034 | 0.48 ± 0.025 | 0.588 ± 0.0086 | 0.46 ± 0.029 | 0.482 ± 0.03 | 0.552 ± 0.0068 | 0.436 ± 0.022
NGSCRVVMYIKG | 0.667 ± 0.014 | 0.731 ± 0.022 | 0.592 ± 0.025 | 0.717 ± 0.014 | 0.588 ± 0.027 | 0.61 ± 0.0079 | 0.662 ± 0.017 | 0.552 ± 0.08
NKEEHQQKQRIH | 0.636 ± 0.04 | 0.711 ± 0.02 | 0.663 ± 0.02 | 0.719 ± 0.031 | 0.619 ± 0.057 | 0.646 ± 0.049 | 0.698 ± 0.00079 | 0.461 ± 0.15
NKTTKNKKRKLS | 0.467 ± 0.081 | 0.612 ± 0.048 | 0.697 ± 0.027 | 0.656 ± 0.0059 | 0.0924 ± 0.038 | 0.125 ± 0.067 | 0.173 ± 0.011 | 0.159 ± 0.014
NKYNQFKWHINH | 0.624 ± 0.12 | 0.698 ± 0.014 | 0.624 ± 0.026 | 0.742 ± 0.019 | 0.134 ± 0.034 | 0.136 ± 0.0086 | 0.295 ± 0.031 | 0.295 ± 0.0036
NRLHYSPLYTIY | 0.641 ± 0.087 | 0.735 ± 0.033 | 0.653 ± 0.0076 | 0.753 ± 0.0065 | 0.111 ± 0.011 | 0.153 ± 0.015 | 0.256 ± 0.0026 | 0.239 ± 0.0099
NSFASFVVVFVI | 0.371 ± 0.018 | 0.437 ± 0.047 | 0.264 ± 0.034 | 0.512 ± 0.015 | 0.1956 ± 0.00071 | 0.227 ± 0.036 | 0.472 ± 0.03 | 0.34 ± 0.036
NTDRRNICKISS | 0.493 ± 0.031 | 0.671 ± 0.059 | 0.631 ± 0.02 | 0.733 ± 0.0086 | 0.105 ± 0.0079 | 0.1084 ± 0.00051 | 0.169 ± 0.0083 | 0.163 ± 0.044
NTREGFIILARA | 0.523 ± 0.014 | 0.537 ± 0.018 | 0.369 ± 0.03 | 0.573 ± 0.022 | 0.296 ± 0.0041 | 0.349 ± 0.066 | 0.5303 ± 0.0025 | 0.529 ± 0.065
PACFPPPSPFAP | 0.643 ± 0.056 | 0.741 ± 0.026 | 0.712 ± 0.015 | 0.7326 ± 0.0022 | 0.718 ± 0.019 | 0.696 ± 0.029 | 0.725 ± 0.022 | 0.44 ± 0.034
PFDTPSHPNPLF | 0.707 ± 0.034 | 0.789 ± 0.086 | 0.69 ± 0.026 | 0.777 ± 0.024 | 0.711 ± 0.026 | 0.729 ± 0.014 | 0.762 ± 0.019 | 0.744 ± 0.037
PFGYYLFVPVCY | 0.29 ± 0.0094 | 0.343 ± 0.021 | 0.265 ± 0.029 | 0.3985 ± 0.00045 | 0.238 ± 0.0039 | 0.25 ± 0.027 | 0.364 ± 0.0044 | 0.349 ± 0.0044
PFLPFPPPLPAY | 0.4873 ± 0.0045 | 0.553 ± 0.015 | 0.394 ± 0.026 | 0.5646 ± 0.0038 | 0.362 ± 0.0056 | 0.408 ± 0.018 | 0.5079 ± 0.0042 | 0.0909 ± 0.028
PFYAYHFSLSVY | 0.13 ± 0.006 | 0.164 ± 0.0048 | 0.103 ± 0.028 | 0.227 ± 0.015 | 0.0245 ± 0.0025 | 0.0234 ± 0.0066 | 0.0924 ± 0.0037 | 0.0344 ± 0.01
PIFFFGRLLFFL | 0.545 ± 0.045 | 0.592 ± 0.022 | 0.467 ± 0.0098 | 0.5856 ± 0.0046 | 0.3094 ± 0.0008 | 0.314 ± 0.014 | 0.499 ± 0.074 | 0.369 ± 0.016
PLCCFFLLVCSH | 0.117 ± 0.022 | 0.166 ± 0.005 | 0.193 ± 0.019 | 0.2814 ± 0.002 | 0.165 ± 0.0015 | 0.176 ± 0.0079 | 0.221 ± 0.014 | 0.246 ± 0.023
PLFPPTDSPSPN | 0.7098 ± 0.0063 | 0.729 ± 0.051 | 0.668 ± 0.025 | 0.724 ± 0.018 | 0.685 ± 0.025 | 0.648 ± 0.015 | 0.709 ± 0.029 | 0.727 ± 0.03
PLFVLTILLFLC | 0.165 ± 0.042 | 0.314 ± 0.036 | 0.258 ± 0.051 | 0.367 ± 0.017 | 0.156 ± 0.0098 | 0.137 ± 0.013 | 0.179 ± 0.0024 | 0.1706 ± 0.00068
PLGGLVILLLSS | 0.488 ± 0.017 | 0.541 ± 0.0075 | 0.349 ± 0.028 | 0.548 ± 0.014 | 0.194 ± 0.0033 | 0.224 ± 0.017 | 0.4074 ± 0.00071 | 0.293 ± 0.014
PLLALTSWLFFV | 0.5467 ± 0.0033 | 0.6521 ± 0.0011 | 0.586 ± 0.012 | 0.689 ± 0.022 | 0.165 ± 0.0048 | 0.173 ± 0.0033 | 0.268 ± 0.0046 | 0.254 ± 0.008
PLPHTPAPPPFP | 0.6774 ± 0.0011 | 0.728 ± 0.0098 | 0.6492 ± 0.0043 | 0.721 ± 0.036 | 0.674 ± 0.034 | 0.676 ± 0.033 | 0.6992 ± 0.0033 | 0.508 ± 0.043
PLSRLLPLYFLL | 0.405 ± 0.015 | 0.547 ± 0.00061 | 0.548 ± 0.017 | 0.66444 ± 0.00057 | 0.0797 ± 0.0046 | 0.0647 ± 0.0097 | 0.0945 ± 0.018 | 0.0966 ± 0.0083
PPHPLHIPRRLA | 0.631 ± 0.025 | 0.724 ± 0.026 | 0.691 ± 0.02 | 0.743 ± 0.017 | 0.185 ± 0.0086 | 0.218 ± 0.022 | 0.436 ± 0.048 | 0.226 ± 0.033
PPLSRLAVFIVV | 0.4397 ± 0.0027 | 0.487 ± 0.052 | 0.359 ± 0.036 | 0.524 ± 0.008 | 0.3027 ± 0.0018 | 0.353 ± 0.025 | 0.4823 ± 0.003 | 0.4605 ± 0.0023
PPRPSPPPHPLP | 0.658 ± 0.028 | 0.7181 ± 0.0022 | 0.6737 ± 0.003 | 0.727 ± 0.011 | 0.681 ± 0.017 | 0.686 ± 0.01 | 0.6974 ± 0.0035 | 0.746 ± 0.059
PPVRCVRLPLSS | 0.687 ± 0.035 | 0.744 ± 0.0097 | 0.649 ± 0.029 | 0.717 ± 0.01 | 0.647 ± 0.015 | 0.6376 ± 0.0037 | 0.689 ± 0.0054 | 0.63 ± 0.26
PRFRALLLIPVR | 0.0611 ± 0.016 | 0.158 ± 0.029 | 0.178 ± 0.046 | 0.281 ± 0.022 | 0.14 ± 0.026 | 0.17 ± 0.018 | 0.24 ± 0.033 | 0.27 ± 0.012
PRGFVRVDLLIF | 0.302 ± 0.021 | 0.481 ± 0.07 | 0.273 ± 0.027 | 0.442 ± 0.017 | 0.191 ± 0.0062 | 0.208 ± 0.031 | 0.37 ± 0.022 | 0.383 ± 0.064
PRGKGSSGELCV | 0.683 ± 0.038 | 0.7344 ± 0.0044 | 0.662 ± 0.025 | 0.707 ± 0.03 | 0.6363 ± 0.0063 | 0.647 ± 0.033 | 0.712 ± 0.012 | 0.578 ± 0.15
